Results from article PMC9370829 (Nature, 2022).

B1: UvrA, individually purified (natural protein, E. coli, UniProt P0A698 1-940, looked up)
chain: MDKIEVRGARTHNLKNINLVIPRDKLIVVTGLSGSGKSSLAFDTLYAEGQRRYVESLSAYARQFLSLMEKPDVDHIEGLSPAISIEQKSTSHNPRSTVGTITEIHDYLRLLFARVGEPRCPDHDVPLAAQTVSQMVDNVLSQPEGKRLMLLAPIIKERKGEHTKTLENLASQGYIRARIDGEVCDLSDPPKLELQKKHTIEVVVDRFKVRDDLTQRLAESFETALELSGGTAVVADMDDPKAEELLFSANFACPICGYSMRELEPRLFSFNNPAGACPTCDGLGVQQYFDPDRVIQNPELSLAGGAIRGWDRRNFYYFQMLKSLADHYKFDVEAPWGSLSANVHKVVLYGSGKENIEFKYMNDRGDTSIRRHPFEGVLHNMERRYKETESSAVREELAKFISNRPCASCEGTRLRREARHVYVENTPLPAISDMSIGHAMEFFNNLKLAGQRAKIAEKILKEIGDRLKFLVNVGLNYLTLSRSAETLSGGEAQRIRLASQIGAGLVGVMYVLDEPSIGLHQRDNERLLGTLIHLRDLGNTVIVVEHDEDAIRAADHVIDIGPGAGVHGGEVVAEGPLEAIMAVPESLTGQYMSGKRKIEVPKKRVPANPEKVLKLTGARGNNLKDVTLTLPVGLFTCITGVSGSGKSTLINDTLFPIAQRQLNGATIAEPAPYRDIQGLEHFDKVIDIDQSPIGRTPRSNPATYTGVFTPVRELFAGVPESRARGYTPGRFSFNVRGGRCEACQGDGVIKVEMHFLPDIYVPCDQCKGKRYNRETLEIKYKGKTIHEVLDMTIEEAREFFDAVPALARKLQTLMDVGLTYIRLGQSATTLSGGEAQRVKLARELSKRGTGQTLYILDEPTTGLHFADIQQLLDVLHKLRDQGNTIVVIEHNLDVIKTADWIVDLGPEGGSGGGEILVSGTPETVAECEASHTARFLKPML

How the values were obtained:
[1] = target: B1; assay: cross-linking
cross-linking = target: the molecule itself; assay: cross-linking

| binding result [1] | Binder | binding result (cross-linking) |
| --- | --- | --- |
| binds | UvrB, individually purified (natural protein, E. coli, UniProt P0A8F8 1-673, looked up) MSKPFKLNSAFKPSGDQPEAIRRLEEGLEDGLAHQTLLGVTGSGKTFTIANVIADLQRPTMVLAPNKTLAAQLYGEMKEFFPENAVEYFVSYYDYYQPEAYVPSSDTFIEKDASVNEHIEQMRLSATKAMLERRDVVVVASVSAIYGLGDPDLYLKMMLHLTVGMIIDQRAILRRLAELQYARNDQAFQRGTFRVRGEVIDIFPAESDDIALRVELFDEEVERLSLFDPLTGQIVSTIPRFTIYPKTHYVTPRERIVQAMEEIKEELAARRKVLLENNKLLEEQRLTQRTQFDLEMMNELGYCSGIENYSRFLSGRGPGEPPPTLFDYLPADGLLVVDESHVTIPQIGGMYRGDRARKETLVEYGFRLPSALDNRPLKFEEFEALAPQTIYVSATPGNYELEKSGGDVVDQVVRPTGLLDPIIEVRPVATQVDDLLSEIRQRAAINERVLVTTLTKRMAEDLTEYLEEHGERVRYLHSDIDTVERMEIIRDLRLGEFDVLVGINLLREGLDMPEVSLVAILDADKEGFLRSERSLIQTIGRAARNVNGKAILYGDKITPSMAKAIGETERRREKQQKYNEEHGITPQGLNKKVVDILALGQNIAKTKAKGRGKSRPIVEPDNVPMDMSPKALQQKIHELEGLMMQHAQNLEFEEAAQIRDQLHQLRELFIAAS | – |
| – | B1 | binds |
